Data taken from patent US20040106105A1 (published 2004).
Several values for one entry are separate records, joined by “and”; a condition that tells them apart may be missing. Equal values may be shown once.

B4: Fab S8 (Fab, V domains shown)
VH: LESGGGLVKPGGSLRLSCAASGFTFSSYAMHWVRQAPGKGLEWVAFIWFDGSNERYADSVKGRFTITRDNPKNTLYLQMNSLRVEDTAVYYCVRRGGSILTGFHLDYWGQGTLVTVSS
VL: ELTQSPSSLSASVGDRVTITCRASQGIRDDLGWYQQKPGKAPKRLIYAASNLQSGVPSRFSGGGSGTEFTLTISSLQPEDFATYYCLQHNSYPLTFGGGTKVEIKR

Tests used:
Fab S8 [1] = target: B4; assay: phage display panning on coated Fab S8, round 2, 12-mer library, 1 clone; clone not tested singly
Fab S8 [2] = target: B4; assay: phage display panning on coated Fab S8, round 1, 12-mer library, 1 clone; clone not tested singly
Fab S8 [3] = target: B4; assay: phage display panning on coated Fab S8, round 4, 12-mer library, 1 clone; clone not tested singly
Fab S8 [4] = target: B4; assay: phage display panning on coated Fab S8, round 3, 12-mer library, 1 clone; clone not tested singly
gp120 of HIV-1 MN strain = gp120 of HIV-1 MN strain (HIV-1 MN, UniProt P05877 32-513); assay: cell-based or functional assay
recombinant gp120 III-B = target: T1, recombinant gp120 III-B (HIV-1 III-B, UniProt P04578 33-511); assay: ELISA on gp120 III-B
T1 construct: domain: gp120; also called gp120 III-B (LAI); HIV-1 gp120

[5] = target: gp120 of HIV-1 SF-2 strain (HIV-1 SF-2, UniProt P03378 32-509); assay: cell-based or functional assay
gp120 of HIV-1 RF strain = gp120 of HIV-1 RF strain (HIV-1 RF, UniProt P04579 32-519); assay: cell-based or functional assay
Fab S8 [6] = target: B4; assay: phage display panning on coated Fab S8, round 4, 7-mer library Ph.D.-C7, 2 clones; clone not tested singly

Question: Does NFQTPDRTQSNL [peptide of phage clone 2r5] bind (Fab S8 [1])?
Answer: binds

Question: Does FYTPTMHSYGIQ [peptide of phage clone 2r6] bind (Fab S8 [1])?
Answer: binds

Question: Does QVMRMMPNGVYC [peptide of phage clone 1r3] bind (Fab S8 [2])?
Answer: binds

Question: Does HDEFVWISIWEP [peptide of phage clone 1r5] bind (Fab S8 [2])?
Answer: binds

Question: Does ADVMLHSKHVQM [peptide of phage clone 4r15] bind (Fab S8 [3])?
Answer: binds

Question: Does HIETLLPAPELS [peptide of phage clone 3r3] bind (Fab S8 [4])?
Answer: binds

Question: Does WFKPPQTPLTLM [peptide of phage clone 4r5] bind (Fab S8 [3])?
Answer: binds

Question: Does SGLDGMHVNSPW [peptide of phage clone 1r1] bind (Fab S8 [2])?
Answer: binds

Question: Does NYFQQPPERHSS [peptide of phage clone 2r10] bind (Fab S8 [1])?
Answer: binds

Question: Does LFQKQIESPWRS [peptide of phage clone 1r10] bind (Fab S8 [2])?
Answer: binds

Question: Does TMQPYKSWWSSK [peptide of phage clone 4r10] bind (Fab S8 [3])?
Answer: binds

Question: Does SAKPSYQPYAQP [peptide of phage clone 3r1] bind (Fab S8 [4])?
Answer: binds

Question: Does MPNPRQNPPPPL [peptide of phage clone 2r4] bind (Fab S8 [1])?
Answer: binds

Question: Does SVSPNMRMLHWW [peptide of phage clone 2r7] bind (Fab S8 [1])?
Answer: binds

B1: Fab S20 (Fab, V domains shown)
VH: LESGGGVVQPGRSLRLSCSASGFSFRDYAMHWVRQAPGKGLEWVAFIWFDGSNERYADSVKGRFTITRDNPKNTLYLQMNSLRVEDTAVYYCVRRGGSILTGFHLDYWGQGTLVTVSS
VL: ELTQSPSSLSASVGDRVTITCRASQGIRDDLGWYQQKPGKAPKRLIYAASNLQSGVPSRFSGGGSGTEFTLTISSLQPEDFATYYCLQHNSYPLTFGGGTKVEIKR
Question: B1 was tested. Which “% neutralisation, neutralisation plaque assay (NPA) in MT-4 cells” value (gp120 of HIV-1 MN strain) did it give?
Answer: 90 % neutralisation at 20 µg/ml

B2: Fab S20 HCDR3 mutant Arg95Gly (Fab, V domains shown)
VH: LESGGGVVQPGRSLRLSCSASGFSFRDYAMHWVRQAPGKGLEWVAFIWFDGSNERYADSVKGRFTITRDNPKNTLYLQMNSLRVEDTAVYYCVRGGGSILTGFHLDYWGQGTLVTVSS
VL: ELTQSPSSLSASVGDRVTITCRASQGIRDDLGWYQQKPGKAPKRLIYAASNLQSGVPSRFSGGGSGTEFTLTISSLQPEDFATYYCLQHNSYPLTFGGGTKVEIKR
notes: See note of m21
Question: Does B2 bind (recombinant gp120 III-B)?
Answer: no binding

B3: Fab S20 HCDR3 mutant Arg95Asp (Fab, V domains shown)
VH: LESGGGVVQPGRSLRLSCSASGFSFRDYAMHWVRQAPGKGLEWVAFIWFDGSNERYADSVKGRFTITRDNPKNTLYLQMNSLRVEDTAVYYCVRDGGSILTGFHLDYWGQGTLVTVSS
VL: ELTQSPSSLSASVGDRVTITCRASQGIRDDLGWYQQKPGKAPKRLIYAASNLQSGVPSRFSGGGSGTEFTLTISSLQPEDFATYYCLQHNSYPLTFGGGTKVEIKR
notes: The text names only S2095K for S20
Question: Does B3 bind (recombinant gp120 III-B)?
Answer: no binding

Question: With B4 as the binder, how does the “% neutralisation, infectivity reduction assay (IRA) in MT-2 cells” value [5] read?
Answer: 50 % neutralisation at 1 µg/ml and > 90 % neutralisation at 10 µg/ml

Question: What about the “% neutralisation, infectivity reduction assay (IRA) in MT-2 cells” value (gp120 of HIV-1 MN strain) of the same binder?
Answer: 50 % neutralisation at 1 µg/ml and > 90 % neutralisation at 10 µg/ml

Question: What about the “% neutralisation, neutralisation plaque assay (NPA) in MT-4 cells” value (gp120 of HIV-1 MN strain) of the same binder?
Answer: 90 % neutralisation at 20 µg/ml

Question: And the “% neutralisation, infectivity reduction assay (IRA) in MT-2 cells” value (gp120 of HIV-1 RF strain)?
Answer: 50 % neutralisation at 1 µg/ml and > 90 % neutralisation at 10 µg/ml

B5: Fab S20 HCDR3 mutant Arg95Pro (Fab, V domains shown)
VH: LESGGGVVQPGRSLRLSCSASGFSFRDYAMHWVRQAPGKGLEWVAFIWFDGSNERYADSVKGRFTITRDNPKNTLYLQMNSLRVEDTAVYYCVRPGGSILTGFHLDYWGQGTLVTVSS
VL: ELTQSPSSLSASVGDRVTITCRASQGIRDDLGWYQQKPGKAPKRLIYAASNLQSGVPSRFSGGGSGTEFTLTISSLQPEDFATYYCLQHNSYPLTFGGGTKVEIKR
notes: See note of m21
Question: Does B5 bind (recombinant gp120 III-B)?
Answer: no binding

B6: Fab S8 HCDR3 mutant Arg95Asp (Fab, V domains shown)
VH: LESGGGLVKPGGSLRLSCAASGFTFSSYAMHWVRQAPGKGLEWVAFIWFDGSNERYADSVKGRFTITRDNPKNTLYLQMNSLRVEDTAVYYCVRDGGSILTGFHLDYWGQGTLVTVSS
VL: ELTQSPSSLSASVGDRVTITCRASQGIRDDLGWYQQKPGKAPKRLIYAASNLQSGVPSRFSGGGSGTEFTLTISSLQPEDFATYYCLQHNSYPLTFGGGTKVEIKR
Question: Does B6 bind (recombinant gp120 III-B)?
Answer: no binding

B7: Fab S8 HCDR3 mutant Arg95Pro (Fab, V domains shown)
VH: LESGGGLVKPGGSLRLSCAASGFTFSSYAMHWVRQAPGKGLEWVAFIWFDGSNERYADSVKGRFTITRDNPKNTLYLQMNSLRVEDTAVYYCVRPGGSILTGFHLDYWGQGTLVTVSS
VL: ELTQSPSSLSASVGDRVTITCRASQGIRDDLGWYQQKPGKAPKRLIYAASNLQSGVPSRFSGGGSGTEFTLTISSLQPEDFATYYCLQHNSYPLTFGGGTKVEIKR
Question: Does B7 bind (recombinant gp120 III-B)?
Answer: no binding

B8: Fab S8 HCDR3 mutant Arg95Gly (Fab, V domains shown)
VH: LESGGGLVKPGGSLRLSCAASGFTFSSYAMHWVRQAPGKGLEWVAFIWFDGSNERYADSVKGRFTITRDNPKNTLYLQMNSLRVEDTAVYYCVRGGGSILTGFHLDYWGQGTLVTVSS
VL: ELTQSPSSLSASVGDRVTITCRASQGIRDDLGWYQQKPGKAPKRLIYAASNLQSGVPSRFSGGGSGTEFTLTISSLQPEDFATYYCLQHNSYPLTFGGGTKVEIKR
Question: Does B8 bind (recombinant gp120 III-B)?
Answer: no binding

Question: Does HASTPSSPWSRP [peptide of phage clone 3r7] bind (Fab S8 [4])?
Answer: binds

Question: Does SASTPSSPWSRP [peptide of phage clone 4r17] bind (Fab S8 [3])?
Answer: binds

Question: Does TTGDHRAFWLGG [peptide of phage clone 2r9] bind (Fab S8 [1])?
Answer: binds

Question: Does HGHPLKTNTHRS [peptide of phage clone 2r3] bind (Fab S8 [1])?
Answer: binds

Question: Does HTRVLPSTAMTL [peptide of phage clone 1r9] bind (Fab S8 [2])?
Answer: binds

Question: Does HTKCSDASCPLI [peptide of phage clone 2r1] bind (Fab S8 [1])?
Answer: binds

Question: Does FPASMPGLLLRV [peptide of phage clone 1r2] bind (Fab S8 [2])?
Answer: binds

Question: Does QDRALITPLDQT [peptide of phage clone 1r4] bind (Fab S8 [2])?
Answer: binds

Question: Does KAPIPSSIPGFR [peptide of phage clone 3r4] bind (Fab S8 [4])?
Answer: binds

Question: Does QPTTPFFDWDTH [peptide of phage clone 3r6] bind (Fab S8 [4])?
Answer: binds

Question: Does SSCAAFWSKARP [peptide of phage clone 1r7] bind (Fab S8 [2])?
Answer: binds

Question: Does LPNATKLAPISP [peptide of phage clone 3r10] bind (Fab S8 [4])?
Answer: binds

Question: Does SAMEAPP (also called 4c7) [peptide of phage clone c72R4] bind (Fab S8 [6])?
Answer: binds

Question: Does TAMNLGPALFRT [peptide of phage clone 4r3] bind (Fab S8 [3])?
Answer: binds

Question: Does MQSQLYRDSPRG [peptide of phage clone 3r9] bind (Fab S8 [4])?
Answer: binds

Question: Does CLSSNSSPPPRP [peptide of phage clone 1r8] bind (Fab S8 [2])?
Answer: binds

Question: Does WTTNFADPPSST [peptide of phage clone 1r6] bind (Fab S8 [2])?
Answer: binds

Question: Does GTTQNAMSLARL [peptide of phage clone 3r5] bind (Fab S8 [4])?
Answer: binds
